US12559537B2, “Nucleic acid encoding NKP30 receptor targeted therapeutics” (THE TRUSTEES OF DARTMOUTH COLLEGE, priority 2011, dated 2026)

Test system: K562 target cells
Assay: Cytotoxicity-blocking with soluble NKp30 (LDH release)
Format: cell-based, human
Conditions: 10 μg/ml, K562 targets, E:T 5:1, 5-h LDH release
Procedure: FIG. 7C further illustrates that lysis was mediated by the chimeric NKp30 constructs. […] Effector T cells modified with wtNKp30 or NKp30-CD28-3ζ were cocultured with target cells K562 in the presence of 10 μg/ml NKp30-mIgG2a or mouse IgG at a ratio of 5:1; the percentage of specific lysis was determined after a 5-h LDH-release assay. The data are presented as mean+/−SD and are representative of two independent experiments.
The cytotoxic activity of chimeric NKp30-modified human T cells against various tumor cell lines was determined. […] To confirm that chimeric NKp30-mediated killing is dependent on the interactions between NKp30 and its ligands, soluble NKp30 (NKp30-mIgG2a) was incubated with K562 target cells prior to the coculture with T cells.
Cytotoxicity of T cells against target cells was determined by an LDHrelease assay using the CytoTox 96 Non-Radioactive Cytotoxicity Assay kit (Promega, Madison, WI). Specific lysis was determined using the following equation: percentage of specific lysis=[(experimental−effector spontaneous−target spontaneous)/(target maximum−target spontaneous)]×100. In the cytotoxicity-blocking experiments, K562 target cells were preincubated with a soluble NKp30 receptor, NKp30-mIgG2a ([…]), for 30 min before coculture with T cells in an LDH-release assay.

“NKp30-mIgG2a: soluble fusion protein: extracellular portion of human NKp30 fused to the mouse IgG2a hinge-CH2-CH3 portion” was tested, and the “NKp30-28-3ζ-bearing T cell-mediated cytotoxicity in presence of soluble NKp30” value was “significantly reduced”.
